Results reported in US20180355014A1.

Assays:
[1] = target: HLA-A*11:01 (human); assay: REVEAL MHC-peptide binding assay, recombinant HLA-A*11:01; details: remark: other sources report otherwise
[2] = target: HLA-B*08:01 (human); assay: REVEAL MHC-peptide binding assay, recombinant HLA-B*08:01; details: remark: other sources report otherwise

Binder | In Vitro Score (% of positive control peptide) [1] | In Vitro Score (% of positive control peptide) [2]
IIFWVKRGR [… (SEQ ID NO: 19)] | 54.5 | 0
AFIIFWVSR [… (SEQ ID NO: 24)] | 54 | –
IIFWVKRGS [… (SEQ ID NO: 57)] | – | 0.4
IFWVARGRK [… (SEQ ID NO: 47)] | 34.9 | 0
IFWVQRGNK [… (SEQ ID NO: 86)] | 67.5 | 0.1
IFWVQRGAK [… (SEQ ID NO: 82)] | 61.3 | 0.2
IFWVKRGSK [… (SEQ ID NO: 58)] | 47.9 | 1.2
AFIIFWVAR [… (SEQ ID NO: 45)] | 51.8 | 0.2
IFWVHRGRK [… (SEQ ID NO: 41)] | 36.6 | 0.1
IFWVKRGAK [… (SEQ ID NO: 70)] | 69.7 | 2.2
IIFWVARGR [… (SEQ ID NO: 46)] | 70.6 | 0.3
IFWVKRGLK [… (SEQ ID NO: 62)] | 61.1 | 58.3
IIFWVKRGA [… (SEQ ID NO: 69)] | 22.6 | 0.9
IIFWVSRGR [… (SEQ ID NO: 26)] | 68.9 | 0
IIFWVHRGR [… (SEQ ID NO: 40)] | 77.5 | 0.2
AFIIFWVHR [… (SEQ ID NO: 38)] | 34.9 | –
IIFWVQRGA [… (SEQ ID NO: 81)] | 56.5 | 0.2
FIIFWVHRG [… (SEQ ID NO: 39)] | 0.9 | 0.2

Binder | In Vitro Score (% of positive control peptide) [1] | In Vitro Score (% of positive control peptide) [2]
WVQRGNKKL [… (SEQ ID NO: 88)] | 10.7 | 32
WVKRGAKKL [… (SEQ ID NO: 72)] | 4.6 | 34.1
VAFIIFWVK [… (SEQ ID NO: 16)] | 109 | 0.3
WVKRGNKKL [… (SEQ ID NO: 76)] | 4.1 | 65.9
IIFWVKRGL [… (SEQ ID NO: 61)] | 32.4 | 1.7
IFWVSRGRK [… (SEQ ID NO: 27)] | – | 0
WVKRGHKKL [… (SEQ ID NO: 68)] | 2.8 | 47.6
IFWVKRGHK [… (SEQ ID NO: 66)] | 30.9 | 3.2
WVARGRKKL [… (SEQ ID NO: 49)] | 13.8 | 32.4
IIFWVQRGR [… (SEQ ID NO: 53)] | 72.8 | 0.1
VAFIIFWVS [… (SEQ ID NO: 23)] | 25.1 | 0.1
IIFWVKRGN [… (SEQ ID NO: 73)] | 42.1 | 0.9
WVQRGRKKL [… (SEQ ID NO: 56)] | 12.8 | 45.1
IIFWVLRGR [… (SEQ ID NO: 33)] | 35.2 | 0.4
IFWVQRGRK [… (SEQ ID NO: 54)] | 128 | 0
IFWVKRGNK [… (SEQ ID NO: 74)] | 45.9 | 0.1
WVKRGSKKL [… (SEQ ID NO: 60)] | 11.8 | 56.1
